What was measured:
[1] = tested on: RPMI-8226 cells; assay: Macrophage ADCP; type: cell-based; settings: RPMI-8226, human macrophages
Procedure: (§1) Cultured macrophages were detached and plated in flat 96-well plates at 50 000 cells/well and placed in 37° C. CFSE-stained target cells were incubated with antibodies for up to 1 hr on ice. After washing, the different cell solutions were added to the culture plates containing macrophages at a ratio of 5:1 (Target cells:Macrophages). Thereafter, the culture plates were incubated at 37° C. for 1-2 hr (primary patient MM cells) or 16 hr (RPMI-8226 cells). The percentage of macrophages that had phagocytosed tumor cells (CFSE^+, CD206^+) per total analyzed macrophages was determined following gating and acquisition of 5000 CD206^+ cells/sample.
(§2) Buffy coats from healthy human donors were ordered through the local blood central at Lund University Hospital and Halmstad Hospital. Peripheral blood mononuclear cells (PBMCs) were first extracted using Ficoll-Paque PLUS (GE Healthcare Life Sciences), followed by isolation of monocytes with CD14 MicroBeads and MACS separation (Miltenyi Biotec). The monocytes were cultured in RPMI 1640 medium with 10% heat-inactivated FBS (Invitrogen) and 25 ng/mL of recombinant human M-CSF (R&D Systems) for 6-14 days, causing differentiation into macrophages. Medium with M-CSF was changed every 2-3 days upon initiation of cultures.
(§3) RPMI-8226 cells (ATCC) were continuously cultured in RPMI 1640 medium supplemented with 10 mM HEPES, 1 mM sodium pyruvate and 10% FBS. For multiple myeloma cells, freshly isolated bone marrow samples were donated by patients at Lund University Hospital and subsequently processed with Ficoll-Paque PLUS. Negative isolation of malignant plasma cells was then performed using the Plasma Cell Isolation Kit II according to the manufacturer's instructions (Miltenyi Biotec).
(§4) At least 4 h before co-culture with target cells the cultured macrophages were detached with Accutase (Sigma Aldrich), before plated in flat 96-well plates at 50 000 cells/well and placed in 37° C. […] After washing, the different cell solutions were added to the culture plates containing macrophages at a ratio of 5:1 (Target cells:Macrophages). Thereafter, the culture plates were incubated at 37° C. for 1-2 hr (primary patient MM cells) or 16 hr (RPMI-8226 cells). Next, samples were stained with APC-conjugated anti-CD206 antibody (BD Biosciences), before harvested by scraping the culture plate wells. The resulting cell solutions were then analyzed by flow cytometry, where CD206^+ macrophages were gated and acquired at 5000 cells/sample. A cut-off level identifying CFSE^+, CD206^+ double positive (phagocytic) macrophages was set for each experimental sample series. This level differed between the individual assays since the magnitude of basic (unstimulated) phagocytosis varied (different donors and time-points) among the experiments.

[2] = tested on: primary patient's MM cells; assay: Macrophage ADCP; type: cell-based; settings: human macrophages
Procedure: as §1, §2, §3, §4

B1: B11: fully human IgG1 antibody specific for ICAM-1; VH and VL sequences of FIG. 10 (SEQ ID NOs. 6 and 8) (antibody, listed as Homo sapiens, V domains shown)
VH: EVQLLESGGGLVQPGGSLRLSCAASGFTFSNAWMSWVRQAPGKGLEWVAFIWYDGSNKYYADSVKGRFTISRDNSKNTLYLQMNSLRAEDTAVYYCARYSGWYFDYWGQGTLVTVSS
VL: QSVLTQPPSASGTPGQRVTISCTGSSSNIGAGYDVHWYQQLPGTAPKLLIYDNNNRPSGVPDRFSGSKSGTSASLAISGLRSEDEADYYCQSYDSSLSAWLFGGGTKLTVLG
Q: How did the “ADCP” value [1] turn out when B1 was run?
A: conferred ADCP

Q: And the “ADCP” value [2]?
A: conferred ADCP

— patent publication US9803013B2, “Biological materials and uses thereof” (BioInvent International AB, priority 2005, dated 2017)
